The record followed here is article PMC2115787.

Common to all, as to assay: light chain exchange into myosin
In experiment [1] the target is myosin from adult White Rock chicken pectoralis muscle (chicken) (UniProt P02609).
Experiment [2] has the same target. This is another data set of the same source.
Experiment [3] shares this target. The source holds these as a separate data set.
Experiment [4] has the same target. The source holds these as a separate data set.

Where two headings read alike, the source gives them in different places.

As to “regulatory light chain LC2 singly labeled with fluorescein at Cys 125 (from UniProt P02609 1-168) (natural protein)”, the percent exchange was found to be 49% in experiment [1], 84% in experiment [2], 7% in experiment [3] and 26% in experiment [4].
